Source: publication PMC3691878

Columns and labels:
Test in all cases: SEC
[1] = target: rainbow trout (Oncorhynchus mykiss) BALM (rainbow trout (Oncorhynchus mykiss))
[2] = target: rainbow trout (Oncorhynchus mykiss) RANKL (rainbow trout (Oncorhynchus mykiss))
[3] = target: rainbow trout (Oncorhynchus mykiss) TRAIL-like (rainbow trout (Oncorhynchus mykiss))

“rainbow trout (Oncorhynchus mykiss) BALM (ligand)” was tested, and the stoichiometry N [1] was 3.

Substance “rainbow trout (Oncorhynchus mykiss) RANKL (ligand)” has a stoichiometry N [2] of 3.

With “rainbow trout (Oncorhynchus mykiss) TRAIL-like (ligand)” the stoichiometry N [3] was 3.
